This note sets out measurements from patent US6190920A, “Method for detecting enzyme catalyzed cyclization” (The Regents of the University of California, priority 1997, dated 2001).

What all share (type): biochemical, bovine
For assay [1], the target named is T1, Trypsin (Bos taurus, UniProt P00760).
T1 construct: Trypsin (from bovine pancrease, Type I, ethanol precipitate); purchased Sigma Type I (catalogue number not given); host or cells: bovine pancreas
T1 sequence (P00760 24-246): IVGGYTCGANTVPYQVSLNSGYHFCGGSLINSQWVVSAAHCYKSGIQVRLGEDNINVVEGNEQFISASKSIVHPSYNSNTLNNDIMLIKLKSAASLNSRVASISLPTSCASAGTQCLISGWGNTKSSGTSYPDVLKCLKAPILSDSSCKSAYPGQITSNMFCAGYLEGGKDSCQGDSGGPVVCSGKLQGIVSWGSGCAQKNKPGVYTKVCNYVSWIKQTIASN
Kind of assay: Trypsin assay (L-BAPNA hydrolysis, absorbance at 410 nm). Particulars: 5% DMSO. Here is the method:
(§1) Reagents and solvents were obtained from commercial suppliers and used as received. Trypsin (from bovine pancrease, Type I, ethanol precipitate) and N-α-benzoyl-L-arginine-p-nitroanilide, hydrochloride were obtained from Sigma®. All moisture- or air-sensitive reactions were conducted under nitrogen in dried solvents. Unless otherwise indicated, chromatography was performed on silica gel with the indicated solvent as eluant. […]
All assays were performed at 37° C. on a Kontron Uvikon 860 UV-Vis spectrophotmeter. The forward reaction rate was measured by monitoring the absorbance change at 410 nm of the para-nitroanilide produced ( e=8800 M^-1 cm^-1 at 410 nm) at 30 sec intervals for 15 min. The concentrations of inhibitor solutions were determined spectrophotometrically from Disperse Red 1's extinction coefficient of 15,562 M^-1 cm^-1 at 490 nm. […] Inhibition constants (Ki 's) were determined from the slope of the V0 /v vs. [inhibitor] plots where the slope=1/Ki (1 +[L-BAPNA]/Km) and Km =2.0 +/-0.3 mM, V0 =rate in the absence of inhibitor and v=rate in the presence of inhibitor. […]

For assay [2], the target named is T1, Trypsin. As to the kind of experiment: Trypsin-catalyzed cyclization of acyclic compound, products determined. The settings on record: 30:30:40 DMF/ethanol/pH 6.5 Tris buffer. Here is the method:
The structure was determined conventionally.
The compound of Formula III SEQ ID NO: 1 where L is a resin linker was treated in the same manner, and the resin component removed. […] Therefore the material on the resin is accessible to the enzyme. A control experiment without the enzyme gave only starting material.
as §1

Assay [3] has as its target T1, Trypsin. As to the kind of experiment: Dye retention on resin after trypsin treatment and cleavage of ester X. Particulars: trypsin in 30:30:40 DMF/ethanol/pH 6.5 Tris buffer, then 1:1 methanol/1M sodium hydroxide, filtered and washed. The source says: The compound of formula (3) is soluble; the compounds of formula (4) and (5) are not, as a consequence of their attachment to a resin. Therefore, whether or not cyclization has taken place, a solid insoluble product will remain, which can be filtered off and purified by washing. However, if cyclization has taken place and a product of formula (5) has been formed, the dye will still be attached to the resin, which consequently is visibly colored, or is visible under UV or by fluorescence, depending upon the dye used. If cyclization has not taken place and products of formula (3) and (4) have been formed, the dye will be seen in the filtrate and the insoluble resin material will be colorless.
The specific analogs that afford positive results in this screen may be then identified by conventional analysis of the material that is isolated from the resin beads by cleaving the bond linking the material to the resin beads. […]

Structures can show the parent of a compound that is named as a salt. *1 amine or outer side, *2 acyl side, *3 side chain or, on linkers, in order; H or OH if unused. Where a SMILES comes first, the peptide text is derived from it. Bridges are numbered along the chain shown (N, C = ends). Where no end group is shown, it is not given here. [ ]: non-standard residue; d: D form. The star is where a group is joined. X2 = CCN(CCN([C@@H](Cc1ccc(O)cc1)C(=O)[*:2])[*:1])c1ccc(N=Nc2ccc([N+](=O)[O-])cc2)cc1; X1 = NC(=O)CCCC(=O)*

What is called Km is the substrate concentration at which the rate is half of its maximum. Take `NC(N)=NCCCC(NC(=O)c1ccccc1)C(=O)Nc1ccc([N+](=O)[O-])cc1` [L-BAPNA, N-α-benzoyl-L-arginine-p-nitroanilide, hydrochloride, reference compound]: at Trypsin [1] (100 mM TRIS/10 mM CaCl2 (pH=8.0), Lineweaver-Burke and non-linear regression of initial rates), the Km is 2000 ± 300 µM.

One may read the Ki as a dissociation constant, usually derived from enzyme kinetics or from competition with a known ligand. Consider `CCN(CCN1C(=O)[C@H](CC(C)C)NC(=O)[C@H](CO)NC(=O)[C@H](CCCNC(=N)N)NC(=O)[C@@H](NC(=O)CCCC(N)=O)[C@@H](C)OC(=O)[C@H](C(C)C)NC(=O)[C@@H]1Cc1ccc(O)cc1)c1ccc(N=Nc2ccc([N+](=O)[O-])cc2)cc1` [macrocyclic analog] (X1-TRSL[X2]V; ester 1-C), for which the Ki at Trypsin [1] (37° C., 100 mM TRIS/10 mM CaCl2 pH=8.0, substrate L-BAPNA, average value of 3 separate determinations, read-out: inhibition constant Ki) is 230 nM.

Consider “O-{N-[L-Serinyl-L-leucyl]-N-[(4-nitrophenylazo)-2-aminophenylethyl-N-ethyl]-L-tyrosinyl-L-valinyl}-N-(glutaryl-photolinker-Tentagel-amide)-L-threonyl-L-arginine, Methyl Ester (SLYVTR-OMe; also: Tyr3 N-substituted with (4-nitrophenylazo)-2-aminophenylethyl-N-ethyl group, Val4-Thr5 ester bond via Thr side-chain OH, backbone changed)”, for which the cyclization by trypsin entry in the assay with Trypsin [2] is “The same products A and B were obtained”. In the assay with Trypsin [3], the “retention of dye colour on resin” value was “The color was retained on the resin”.

Regarding “O-{N-[L-serinyl-L-leucyl]-N-[(4-nitrophenylazo)-2-aminophenylethyl-N-ethyl]-L-tyrosinyl-L-valinyl}-N-(glutaryl carboxamide)-L-threonyl-L-arginine, Methyl Ester (SLYVTR-OMe; also: depsipeptide: Val ester-linked to Thr side-chain O, Tyr N-substituted with (4-nitrophenylazo)-2-aminophenylethyl-N-ethyl azo dye, Thr N-acylated with glutaryl carboxamide) [Ser--Leu--N(dye)--Tyr--Val--O--Thr(NH--C(O)--(CH2)3 CONH--L)--Arg--OR, R methyl, L hydrogen]”, the cyclization by trypsin entry with Trypsin [2] is recorded as “readily cyclized”.
